Sequences and labels used below:
B1: Low-density lipoprotein receptor-related protein 6 (Homo sapiens), O75581 (parent)
chain: MGAVLRSLLACSFCVLLRAAPLLLYANRRDLRLVDATNGKENATIVVGGLEDAAAVDFVFSHGLIYWSDVSEEAIKRTEFNKTESVQNVVVSGLLSPDGLACDWLGEKLYWTDSETNRIEVSNLDGSLRKVLFWQELDQPRAIALDPSSGFMYWTDWGEVPKIERAGMDGSSRFIIINSEIYWPNGLTLDYEEQKLYWADAKLNFIHKSNLDGTNRQAVVKGSLPHPFALTLFEDILYWTDWSTHSILACNKYTGEGLREIHSDIFSPMDIHAFSQQRQPNATNPCGIDNGGCSHLCLMSPVKPFYQCACPTGVKLLENGKTCKDGATELLLLARRTDLRRISLDTPDFTDIVLQLEDIRHAIAIDYDPVEGYIYWTDDEVRAIRRSFIDGSGSQFVVTAQIAHPDGIAVDWVARNLYWTDTGTDRIEVTRLNGTMRKILISEDLEEPRAIVLDPMVGYMYWTDWGEIPKIERAALDGSDRVVLVNTSLGWPNGLALDYDEGKIYWGDAKTDKIEVMNTDGTGRRVLVEDKIPHIFGFTLLGDYVYWTDWQRRSIERVHKRSAEREVIIDQLPDLMGLKATNVHRVIGSNPCAEENGGCSHLCLYRPQGLRCACPIGFELISDMKTCIVPEAFLLFSRRADIRRISLETNNNNVAIPLTGVKEASALDFDVTDNRIYWTDISLKTISRAFMNGSALEHVVEFGLDYPEGMAVDWLGKNLYWADTGTNRIEVSKLDGQHRQVLVWKDLDSPRALALDPAEGFMYWTEWGGKPKIDRAAMDGSERTTLVPNVGRANGLTIDYAKRRLYWTDLDTNLIESSNMLGLNREVIADDLPHPFGLTQYQDYIYWTDWSRRSIERANKTSGQNRTIIQGHLDYVMDILVFHSSRQSGWNECASSNGHCSHLCLAVPVGGFVCGCPAHYSLNADNRTCSAPTTFLLFSQKSAINRMVIDEQQSPDIILPIHSLRNVRAIDYDPLDKQLYWIDSRQNMIRKAQEDGSQGFTVVVSSVPSQNLEIQPYDLSIDIYSRYIYWTCEATNVINVTRLDGRSVGVVLKGEQDRPRAVVVNPEKGYMYFTNLQERSPKIERAALDGTEREVLFFSGLSKPIALALDSRLGKLFWADSDLRRIESSDLSGANRIVLEDSNILQPVGLTVFENWLYWIDKQQQMIEKIDMTGREGRTKVQARIAQLSDIHAVKELNLQEYRQHPCAQDNGGCSHICLVKGDGTTRCSCPMHLVLLQDELSCGEPPTCSPQQFTCFTGEIDCIPVAWRCDGFTECEDHSDELNCPVCSESQFQCASGQCIDGALRCNGDANCQDKSDEKNCEVLCLIDQFRCANGQCIGKHKKCDHNVDCSDKSDELDCYPTEEPAPQATNTVGSVIGVIVTIFVSGTVYFICQRMLCPRMKGDGETMTNDYVVHGPASVPLGYVPHPSSLSGSLPGMSRGKSMISSLSIMGGSSGPPYDRAHVTGASSSSSSSTKGTYFPAILNPPPSPATERSHYTMEFGYSSNSPSTHRSYSYRPYSYRHFAPPTTPCSTDVCDSDYAPSRRMTSVATAKGYTSDLNYDSEPVPPPPTPRSQYLSAEENYESCPPSPYTERSYSHHLYPPPPSPCTDSS
partner: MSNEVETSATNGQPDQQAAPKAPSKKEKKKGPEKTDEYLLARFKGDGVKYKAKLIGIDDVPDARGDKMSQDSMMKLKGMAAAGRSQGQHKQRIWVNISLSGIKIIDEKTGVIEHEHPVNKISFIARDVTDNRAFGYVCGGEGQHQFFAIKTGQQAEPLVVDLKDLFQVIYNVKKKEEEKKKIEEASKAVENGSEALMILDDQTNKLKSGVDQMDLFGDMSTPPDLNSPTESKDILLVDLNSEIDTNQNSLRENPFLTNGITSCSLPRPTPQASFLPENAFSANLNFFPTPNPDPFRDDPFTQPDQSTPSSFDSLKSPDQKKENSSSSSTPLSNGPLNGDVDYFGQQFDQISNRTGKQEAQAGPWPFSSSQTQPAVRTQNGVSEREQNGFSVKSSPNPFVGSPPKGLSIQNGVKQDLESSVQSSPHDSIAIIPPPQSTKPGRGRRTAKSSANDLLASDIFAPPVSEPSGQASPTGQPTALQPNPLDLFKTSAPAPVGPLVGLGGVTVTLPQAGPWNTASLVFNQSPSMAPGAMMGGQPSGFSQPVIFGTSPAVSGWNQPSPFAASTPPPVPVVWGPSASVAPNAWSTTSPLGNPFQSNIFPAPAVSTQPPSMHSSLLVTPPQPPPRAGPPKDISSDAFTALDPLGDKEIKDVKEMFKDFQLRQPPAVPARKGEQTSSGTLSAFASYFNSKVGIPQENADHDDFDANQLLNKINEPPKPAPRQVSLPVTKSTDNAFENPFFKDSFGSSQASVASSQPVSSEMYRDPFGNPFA

One experiment covers variants of B1. The conditions noted are these: with dab2_human DAB2, P98082.
Take S1596A: the “effect of a mutation on the interaction” value is recorded as “decreasing interaction”.

In another experiment the parent is B1. The conditions noted are these: with dab2_human DAB2, P98082. This is another data set of the same source.
Regarding S1579A, the “effect of a mutation on the interaction” value was “disrupting interaction”.

Another experiment covers variants of B1. Conditions: with dab2_human DAB2, P98082. This is another data set of the same source.
Take Y1592A: the “effect of a mutation on the interaction” value is recorded as “decreasing interaction”.

The variants in the next experiment derive from B1. The conditions noted are these: with dab2_human DAB2, P98082. This is another data set of the same source.
S1590A: the “effect of a mutation on the interaction” value is given as “decreasing interaction”.

The variants in a further experiment derive from B1. Conditions: with dab2_human DAB2, P98082. This is another data set of the same source.
Regarding Y1577A, the “effect of a mutation on the interaction” value was “decreasing interaction”.

The variants in another experiment derive from B1. Conditions: with dab2_human DAB2, P98082. This is another data set of the same source.
Consider T1572A, for which the “effect of a mutation on the interaction” value is reported as “decreasing interaction”.

The variants in a further experiment derive from B1. The conditions noted are these: with dab2_human DAB2, P98082. The source holds these as a separate data set.
Consider T1610A, for which the “effect of a mutation on the interaction” value is listed as “decreasing interaction”.

A further experiment covers variants of B1. The conditions noted are these: with dab2_human DAB2, P98082. The source holds these as a separate data set.
Take S1607A: the “effect of a mutation on the interaction” value is listed as “decreasing interaction”.

In the next experiment the parent is B1. Conditions: with dab2_human DAB2, P98082. This is another data set of the same source.
S1586A: the “effect of a mutation on the interaction” value is on record as “decreasing interaction”.

Another experiment covers variants of B1. Conditions: with dab2_human DAB2, P98082. This is another data set of the same source.
In the case of Y1584A, the “effect of a mutation on the interaction” value was “decreasing interaction”.

In a further experiment the parent is B1. The conditions noted are these: with dab2_human DAB2, P98082. This is another data set of the same source.
On to S1598A, for which the “effect of a mutation on the interaction” value is “increasing interaction”.

In the next experiment the parent is B1. The conditions noted are these: with dab2_human DAB2, P98082. The source holds these as a separate data set.
Regarding S1613A, the “effect of a mutation on the interaction” value was “increasing interaction”.

The variants in a further experiment derive from B1. Conditions: with dab2_human DAB2, P98082. This is another data set of the same source.
Consider T1593A, for which the “effect of a mutation on the interaction” value is “decreasing interaction”.

The next experiment covers variants of B1. Conditions: with dab2_human DAB2, P98082. This is another data set of the same source.
Consider S1575A, for which the “effect of a mutation on the interaction” value is given as “decreasing interaction”.
